Key:
Format in all cases: biochemical, Lyngbya majuscula
CurM ST = assay: ST sulfonation of free acid and ACP-linked substrates (LC-MS, HPLC, FTICR-MS); details: in the presence of ST and PAPS
Procedure: Based on the known mechanism of ST enzyme function, CurM ST was predicted to bind to PAPS, and transfer a sulfonate moiety to the β-hydroxyl group of the intermediate tethered to or released from CurM ACP (FIG. 1B). First, the ST substrate was identified by testing the sulfonation of 1 and 1-ACP. The sulfonation of 1 was analyzed by LC-MS, and that of 1-ACP was examined by HPLC and FTICR-MS. […] Likewise, the stereoselectivity of ST for the β-hydroxyl group was determined by comparing the sulfonation efficiency of (3S)-1-ACP and (3R)-1-ACP. Under the same reaction condition, ST sulfonation with (3R)-1-ACP was about 2.5-fold faster than with (3S)-1-ACP (FIG. 6). Thus, CurM ST stereoselectivity is consistent with the predicted formation of a (R)-β-hydroxyl group by CurM KR.
The ST and TE assays were performed using R)-1-ACP and (3S)-1-ACP substrates. Typically, for the ST reactions, about 300 μM ACP-linked substrate was added with 2 μM ST and 2 mM PAPS in 50 mM Tris-HCl buffer (pH 7.0). For the TE reactions, about 300 μM ACP-linked substrate was added with 2 μM TE in 50 mM Tris-HCl buffer (pH 7.0). All the reactions were incubated at room temperature, quenched by addition of 10% formic acid, and analyzed by reverse-phase HPLC using Jupiter C4 column. The ACP fractions were collected, lyophilized and analyzed by FTICR-MS and IRMPD. […]

CurM TE = assay: Steady-state kinetic analysis of TE hydrolysis using CoA-linked substrates; details: steady-state kinetics
Procedure: (3S)-1-ACP and (3R)-1-ACP were prepared as the TE substrates to test its stereoselectivity for the β-hydroxyl group. The reactions were analyzed by reverse-phase HPLC, and the separated ACP fractions were examined by Fourier transform ion cyclotron resonance mass spectrometry (FTICR-MS) and infrared multiphoton dissociation (IRMPD) (16) techniques. In addition, the chain-release products were detected by LC-MS and confirmed by co-injection with authentic standards. […] However, TE-catalyzed hydrolysis of (3S)-1-ACP was about 5-fold faster than with (3R)-1-ACP (FIG. 5A). […] However, based on bioinformatic analysis of PKS ketoreductase (KR) sequences (17), the CurM KR was predicted to reduce the β-keto to a (R)-β-hydroxyl group in the full-length chain intermediate.
HPLC-based analyses of the TE hydrolysis were performed using XBridge C18 column (4.6×250 mm, 5 μm, Waters) on the Gold HPLC system equipped with an autosampler and controlled by 32 Karat software (Beckman Coulter). Samples were eluted with a linear gradient from 10% to 90% of MeOH/H2O (10 mM CH3CO2NH4). For steady state kinetic studies. TE hydrolysis was examined in 40 μl 50 mM Tris-HCl buffer (pH 7.0) with 100 μM, 200 μM, 500 μM, 1000 μM and 2000 μM (3R)-1-CoA or (3S)-1-CoA. […] The TE hydrolysis reaction was measured by consumption of CoA substrates. […]

[1] = test system: ACP with the sulfated substrate; assay: TE point mutant activity assay (liberation of holo ACP, HPLC); details: for Activity compared to wild type: 1 min; for % Activity: relative to wild type CurM TE and free hydrolysis without enzyme, quenched after 1 min
Procedure: The activity of these mutants was tested using the same assay described previously (28). A one-pot reaction was used where CurM ACP was loaded with a synthesized substrate mimic (FIG. 1B) using Svp, after which CurM ST sulfates the β-hydroxyl. Lastly, CurM TE was added and the reaction is quenched after 1 minute. The liberation of holo ACP was detected by a shift on the HPLC. The ratio of holo ACP to ACP with the sulfated substrate was measured. Mutant activity was compared to the activity of wild type CurM TE and free hydrolysis without enzyme in order to obtain percent activity for the mutants (Table 3).
TE activity was assayed using a modification of the protocol developed by Gu et. al. (28). To generate the sulfated substrate for the TE assay, 225 μM loaded ACP was incubated with 5 μM ST, 1.75 mM PAPS (Sigma), in 100 mM Tris pH 7.9 at room temperature for 10 min. Four μM TE was then added to the mixture and the reaction was quenched with 10% formic acid after 1 min. The samples were analyzed by reverse phase HPLC using a Jupiter C4 column (250×2.0 mm, 5 μm, 300 Å, Phenomenex) and a linear elution gradient from 30% to 90% CH3CN (0.1% CF3CO2H)/H2O (0.1% CF3CO2H) over 45 min.

Molecule	Activity compared to wild type [1]	% Activity [1] [%]	other results
CCCCCCCCCC(CC(O)CC(=O)O)OC (centres unmarked) [compound 1]	–	–	Substrate conversion by ST (CurM ST): No substrate conversion
CCCCCCCCCC(C[C@H](O)CC(=O)O)OC (mixture of isomers) [(3S)-1, (3S,5RS)-3-Hydroxy-5-methoxytetradecanoic acid]	–	–	Substrate preference of TE (CurM TE): preferred substrate
H266R: CurM TE control mutation in the catalytic triad (protein) MEEKFLEFGGNQICLCSWGSPEHPVVLCIHGILEQGLAWQEVALPLAAQGYRVVAPDLFGHGRSSHLEMVTSYSSLTFLAQIDRVIQELPDQPLLLVGHSMGAMLATAIASVRPKKIKELILVELPLPAEESKKESAVNQLTTCLDYLSSTPQHPIFPDVATAASRLRQAIPSLSEEFSYILAQRITQPNQGGVRWSWDAIIRTRSILGLNNLPGGRSQYLEMLKSIQVPTTLVYGDSSKLNRPEDLQQQKMTMTQAKRVFLSGGRNLHIDAAAALASLILTS	1 % of WT	1.4 ± 0.2	–
N211A: CurM TE mutant of conserved Asn interacting with R205 (protein) MEEKFLEFGGNQICLCSWGSPEHPVVLCIHGILEQGLAWQEVALPLAAQGYRVVAPDLFGHGRSSHLEMVTSYSSLTFLAQIDRVIQELPDQPLLLVGHSMGAMLATAIASVRPKKIKELILVELPLPAEESKKESAVNQLTTCLDYLSSTPQHPIFPDVATAASRLRQAIPSLSEEFSYILAQRITQPNQGGVRWSWDAIIRTRSILGLANLPGGRSQYLEMLKSIQVPTTLVYGDSSKLNRPEDLQQQKMTMTQAKRVFLSGGHNLHIDAAAALASLILTS	catalytic activity, but at a reduced rate	54.7 ± 1.8	–
R205Q: CurM TE point mutant R205Q (protein) MEEKFLEFGGNQICLCSWGSPEHPVVLCIHGILEQGLAWQEVALPLAAQGYRVVAPDLFGHGRSSHLEMVTSYSSLTFLAQIDRVIQELPDQPLLLVGHSMGAMLATAIASVRPKKIKELILVELPLPAEESKKESAVNQLTTCLDYLSSTPQHPIFPDVATAASRLRQAIPSLSEEFSYILAQRITQPNQGGVRWSWDAIIRTQSILGLNNLPGGRSQYLEMLKSIQVPTTLVYGDSSKLNRPEDLQQQKMTMTQAKRVFLSGGHNLHIDAAAALASLILTS	–	1.8 ± 0.3	–
N267A: CurM TE mutant of conserved Asn next to the catalytic His (protein) MEEKFLEFGGNQICLCSWGSPEHPVVLCIHGILEQGLAWQEVALPLAAQGYRVVAPDLFGHGRSSHLEMVTSYSSLTFLAQIDRVIQELPDQPLLLVGHSMGAMLATAIASVRPKKIKELILVELPLPAEESKKESAVNQLTTCLDYLSSTPQHPIFPDVATAASRLRQAIPSLSEEFSYILAQRITQPNQGGVRWSWDAIIRTRSILGLNNLPGGRSQYLEMLKSIQVPTTLVYGDSSKLNRPEDLQQQKMTMTQAKRVFLSGGHALHIDAAAALASLILTS	catalytic activity, but at a reduced rate	38.4 ± 3.1	–
R205A: CurM TE point mutant R205A (protein) MEEKFLEFGGNQICLCSWGSPEHPVVLCIHGILEQGLAWQEVALPLAAQGYRVVAPDLFGHGRSSHLEMVTSYSSLTFLAQIDRVIQELPDQPLLLVGHSMGAMLATAIASVRPKKIKELILVELPLPAEESKKESAVNQLTTCLDYLSSTPQHPIFPDVATAASRLRQAIPSLSEEFSYILAQRITQPNQGGVRWSWDAIIRTASILGLNNLPGGRSQYLEMLKSIQVPTTLVYGDSSKLNRPEDLQQQKMTMTQAKRVFLSGGHNLHIDAAAALASLILTS	–	6.1 ± 3.1	–
R205E: CurM TE point mutant R205E (protein) MEEKFLEFGGNQICLCSWGSPEHPVVLCIHGILEQGLAWQEVALPLAAQGYRVVAPDLFGHGRSSHLEMVTSYSSLTFLAQIDRVIQELPDQPLLLVGHSMGAMLATAIASVRPKKIKELILVELPLPAEESKKESAVNQLTTCLDYLSSTPQHPIFPDVATAASRLRQAIPSLSEEFSYILAQRITQPNQGGVRWSWDAIIRTESILGLNNLPGGRSQYLEMLKSIQVPTTLVYGDSSKLNRPEDLQQQKMTMTQAKRVFLSGGHNLHIDAAAALASLILTS	–	2.3 ± 2.1	–
